Reference: the Immune Epitope Database (IEDB)

Columns and labels:
Settings in all cases: source organism: Salmonella enterica subsp. enterica serovar Typhimurium str. LT2
HLA-A*24:03 = experiment: IEDB peptide-MHC binding, purified MHC/direct/fluorescence; filed as Kd, often an IC50 or EC50 that approximates it; ≥ and ≤ were set here for values at or beyond the usual limits of such assays
HLA-A*26:02 = experiment: as above
HLA-A*02:03 = experiment: IEDB peptide-MHC binding, purified MHC/competitive/fluorescence; filed as Kd, often an IC50 or EC50 that approximates it; ≥ and ≤ were set here for values at or beyond the usual limits of such assays
HLA-A*02:06 = experiment: as above
HLA-A*68:23 = experiment: as above
HLA-B*15:01 = experiment: as above
HLA-B*15:17 = experiment: as above
HLA-B*15:42 = experiment: as above
HLA-B*45:06 = experiment: as above
HLA-B*83:01 = experiment: as above

With FPASHMATY the Kd (HLA-A*24:03) was ≥ 20 µM, the Kd (HLA-A*26:02) was ≤ 1 nM and the Kd (HLA-A*02:03) was ≥ 20 µM. The Kd (HLA-A*02:06) was 1290 nM, the Kd (HLA-A*68:23) was 6 nM and the Kd (HLA-B*15:01) was 334 nM. The Kd (HLA-B*15:17) was ≥ 20 µM, the Kd (HLA-B*15:42) was ≥ 5 µM and the Kd (HLA-B*45:06) was ≥ 5 µM. The Kd (HLA-B*83:01) was 220 nM.
